Source: article PMC4889046 (PLoS ONE, 2016)

Molecular target: the molecule itself
Experiment: cross-linking

B1: APOBEC4 fused to three C-terminal HA-tags (A4-HA) (natural protein, human, UniProt Q8WW27 1-367, looked up)
chain: MEPIYEEYLANHGTIVKPYYWLSFSLDCSNCPYHIRTGEEARVSLTEFCQIFGFPYGTTFPQTKHLTFYELKTSSGSLVQKGHASSCTGNYIHPESMLFEMNGYLDSAIYNNDSIRHIILYSNNSPCNEANHCCISKMYNFLITYPGITLSIYFSQLYHTEMDFPASAWNREALRSLASLWPRVVLSPISGGIWHSVLHSFISGVSGSHVFQPILTGRALADRHNAYEINAITGVKPYFTDVLLQTKRNPNTKAQEALESYPLNNAFPGQFFQMPSGQLQPNLPPDLRAPVVFVLVPLRDLPPMHMGQNPNKPRNIVRHLNMPQMSFQETKDLGRLPTGRSVEIVEITEQFASSKEADEKKKKKGKK
notes: also called A4-3xHA; pA4-HA; not shown: 3xHA, C-terminal, kept
  stoichiometry N: 2
